Patent publication US8541376B2, “Composition comprising and method of using angiopoietin-like protein 3 ANGPTL3” (Genentech, Inc., priority 2001, dated 2013)

How the values were obtained:
[1] = tested on: Human microvascular endothelial cells (HMVECs); test: FACS binding of gD-tagged ligands in conditioned media to endothelial cells; conditions: for binding to HMVEC: conditioned media from transfected 293 cells, gD-tagged ligands, FACS
Method: Because of the structural similarities between Angptl3 and angiopoietins, Angptl3 was tested for the ability to bind, in culture, to primary endothelial cells expressing the Tie2 receptor. Human microvascular endothelial cells (HMVECs), purchased from Cell System (Kirkland, Wash.), maintained in CS-C complete medium containing 10% fetal bovine serum and mitogens according to the recommendations by the supplier, were incubated with conditioned media from transiently transfected 293 cells expressing epitope (gD)-tagged versions of Tie2 ligands angiopoietin 1 and 2 (Ang1 and Ang2), Angptl3, and angiopoietin related protein 1 (ARP1), respectively. ARP1 is a structurally related molecule, consisting of a coiled-coil and a fibrinogen-like domain but unable to bind Tie2, and was used as a negative control.

Tie2 receptor = target: T1, Tie2 receptor (Homo sapiens, UniProt Q02763); test: co-immunoprecipitation in cotransfected 293 cells; assay type: binding; conditions: immunoprecipitation with anti-Tie2, anti-gD blot
T1 construct: in conjunction with full length receptor constructs for Tie1 and Tie2, respectively; expressed in transfected cells; host or cells: 293 cells (transient transfection)
T1 sequence (Q02763 23-1124): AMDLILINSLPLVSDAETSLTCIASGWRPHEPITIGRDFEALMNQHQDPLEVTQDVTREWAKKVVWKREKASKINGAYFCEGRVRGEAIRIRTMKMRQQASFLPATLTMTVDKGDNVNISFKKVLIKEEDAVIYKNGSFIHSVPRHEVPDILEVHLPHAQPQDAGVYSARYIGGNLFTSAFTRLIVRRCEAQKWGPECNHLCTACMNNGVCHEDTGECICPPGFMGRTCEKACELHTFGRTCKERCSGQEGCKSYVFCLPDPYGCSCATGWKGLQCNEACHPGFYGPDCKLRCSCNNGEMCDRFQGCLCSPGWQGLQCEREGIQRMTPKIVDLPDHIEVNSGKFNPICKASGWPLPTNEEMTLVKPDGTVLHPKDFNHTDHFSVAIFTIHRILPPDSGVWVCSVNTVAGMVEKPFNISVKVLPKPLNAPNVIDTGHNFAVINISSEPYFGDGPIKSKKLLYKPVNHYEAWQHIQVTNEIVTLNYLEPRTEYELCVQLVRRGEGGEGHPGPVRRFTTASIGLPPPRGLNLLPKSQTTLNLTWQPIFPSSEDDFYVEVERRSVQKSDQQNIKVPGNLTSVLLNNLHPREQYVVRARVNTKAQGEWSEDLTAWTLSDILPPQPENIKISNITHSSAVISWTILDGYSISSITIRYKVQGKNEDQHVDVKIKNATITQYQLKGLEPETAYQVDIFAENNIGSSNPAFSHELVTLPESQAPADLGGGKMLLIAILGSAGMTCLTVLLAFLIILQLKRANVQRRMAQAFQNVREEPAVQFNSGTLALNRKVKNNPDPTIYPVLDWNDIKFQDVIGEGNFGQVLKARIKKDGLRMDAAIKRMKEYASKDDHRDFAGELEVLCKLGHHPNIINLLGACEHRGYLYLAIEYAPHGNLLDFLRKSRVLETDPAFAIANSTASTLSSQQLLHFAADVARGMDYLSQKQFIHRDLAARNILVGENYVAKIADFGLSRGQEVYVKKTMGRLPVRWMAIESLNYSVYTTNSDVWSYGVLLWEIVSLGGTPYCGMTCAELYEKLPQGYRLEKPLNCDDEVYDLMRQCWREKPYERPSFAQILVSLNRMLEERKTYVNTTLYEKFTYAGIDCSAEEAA
Method: (§1) To test whether Tie2, the receptor for angiopoetins 1, 2 and 3 (Ang1, Ang2, and Ang3), or Tie1, an orphan receptor with high sequence homology to Tie2, bind to Angptl3, immunoprecipitation experiments were conducted using 293 cells transiently with expression vectors for epitope (gD)-tagged versions of Ang1 and Ang2, Angptl3 and ARP1 in conjunction with full length receptor constructs for Tie1 and Tie2, respectively. Whole cell extracts were prepared by lysis in RIPA buffer (1×PBS; 1% NP40; 0.5% sodium deoxycholate; 0.1% SDS; PMSF, 100 μg/ml; Aprotinin, 30 μl/ml; sodium orthovanadate, 1 μM) containing freshly added protease inhibitors. Extract was incubated with antibodies specific for Tie1 or Tie2 (Santa Cruz Biotechnology, San Diego, Calif.) and the resulting immunoprecipitate was analyzed by SDS-PAGE and immunoblotting. Specifically, proteins resolved by SDS-PAGE and blotted to PVDF membrane were incubated with antibodies against the gD tag or the Tie receptors, respectively.

HMVEC = test: endothelial cell adhesion assay on Angptl3-coated plates; assay type: cell-based, human
Method: (§2) In order to identify potential integrins binding to Angptl3, recombinant Angptl3 proteins were coated onto 96-well flat-bottomed microtiter plates (MaxiSorp, Nunc, Denmark) overnight at 4° C. and blocked with 100 μg/ml BSA in PBS for 1 hour at 37° C. Various 293 cell lines stably transfected with different integrin heterodimers, including IIbIIIa (αIIBβ3), αvβ3, αvβ1 and αvβ5, were tested for their ability to bind Angptl3 coated plates. Cells were harvested and diluted to 10^5 cells/ml in serum-free CS-C medium containing 1% BSA, 1 mM CaCl2 and 1 mM MgCl2. Cells were preincubated with or without blocking antibodies or peptides for 15 minutes at 37° C. and then stimulated with 200 nM PMA. Cell suspensions (10^4 cells/well) were added to the coated wells and the plates were incubated at 37° C. for selected times. Non-adherent cells were removed by PBS washes and cell attachment was measured using the PNAG method of Lanndegren (Landegren, U., J. Immunol. Methods, 67:379-388 (1984)). Results are expressed at mean OD405 values of triplicate wells.
To determine whether the αvβ3 integrin was sufficient to mediate Angptl3 cell adhesion, blocking antibodies or inhibitory peptides were tested for their ability to inhibit the adhesion in the cell adhesion assay. Function blocking antibodies were added to the endothelial cells prior to incubation with the Angptl3-coated wells. […]

rat cornea = rat cornea in vivo angiogenesis assay; conditions: for angiogenic response compared to levels obtained for VEGF: Angptl3 500 ng vs VEGF 100 ng
Method: In order to test whether Angptl3 was capable to induce an in vivo angiogenic response in the rat cornea, […] pellets containing murine and human Angptl3 (500 ng) as well as human VEGF (100 ng) were implanted separately or in combination as described previously (Xin et al., J. Biol. Chem., 274:[…] (1999)). Hydron pellets containing excipient (control, murine or human Angptl3 (500 ng), VEGF (100 ng), or the combination of murine or human Angptl3 (500 ng) and VEGF (100 ng) were implanted into the corneas of 250 to 300 g male Sprague-Dawley rates. All hydron pellets contained 100 ng of sucralfate. […] Corneal whole mounts were made of the enucleated eyes and analyzed for neovascular areas using a computer-assisted image analysis (Image Pro-Plus 2.0, Silver Spring, Md.). In contrast to previous reports focusing on the effects of angiopoietin 1 and 2 when tested in the corneal angiogenesis assay (Asahara et al., Circ. […] These findings might reflect the interdependent signal transduction pathways engaged by both ligands (Byzova et al., Mol. Cell. 6:852-60 (2000)).

LFA1 = LFA1 (Homo sapiens, UniProt P05107+P20701); conditions: ELISA in vitro (Camenisch et al., 2002); cited from earlier work
αvβ3 integrin = target: T2, αvβ3 integrin (Homo sapiens, UniProt P05106+P06756); test: adhesion of integrin-transfected 293 cell lines to Angptl3-coated plates; assay type: cell-based; conditions: plates coated with 20 μg/ml hAngptl3, 4 hours; compared to cell lines expressing αIIbβ3, αvβ1, αvβ5
T2 construct: expressed in transfected cells
T2 sequence (P06756 31-889 limits assumed): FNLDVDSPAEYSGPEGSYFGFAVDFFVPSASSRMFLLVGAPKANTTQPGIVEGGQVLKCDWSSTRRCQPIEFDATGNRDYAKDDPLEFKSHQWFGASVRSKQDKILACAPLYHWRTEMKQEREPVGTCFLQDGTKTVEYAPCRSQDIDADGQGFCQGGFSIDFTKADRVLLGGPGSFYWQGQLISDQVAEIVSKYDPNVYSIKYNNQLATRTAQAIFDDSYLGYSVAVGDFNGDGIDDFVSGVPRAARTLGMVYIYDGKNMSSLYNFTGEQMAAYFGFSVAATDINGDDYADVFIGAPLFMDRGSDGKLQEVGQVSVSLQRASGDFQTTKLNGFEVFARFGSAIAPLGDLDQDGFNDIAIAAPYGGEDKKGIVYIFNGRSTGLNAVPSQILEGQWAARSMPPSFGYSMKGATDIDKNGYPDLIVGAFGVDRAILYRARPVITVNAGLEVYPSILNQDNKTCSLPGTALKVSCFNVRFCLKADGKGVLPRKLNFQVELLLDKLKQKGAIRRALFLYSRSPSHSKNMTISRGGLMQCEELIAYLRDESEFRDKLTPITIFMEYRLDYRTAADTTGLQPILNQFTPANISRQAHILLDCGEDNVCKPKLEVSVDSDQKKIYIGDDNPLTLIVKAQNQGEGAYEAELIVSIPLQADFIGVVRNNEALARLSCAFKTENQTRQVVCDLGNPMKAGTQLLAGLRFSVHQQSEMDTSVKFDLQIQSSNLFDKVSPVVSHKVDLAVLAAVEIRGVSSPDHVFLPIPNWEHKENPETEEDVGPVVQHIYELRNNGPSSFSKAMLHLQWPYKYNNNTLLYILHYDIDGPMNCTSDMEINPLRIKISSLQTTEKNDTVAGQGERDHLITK
T2 sequence (P06756 891-1048 limits assumed): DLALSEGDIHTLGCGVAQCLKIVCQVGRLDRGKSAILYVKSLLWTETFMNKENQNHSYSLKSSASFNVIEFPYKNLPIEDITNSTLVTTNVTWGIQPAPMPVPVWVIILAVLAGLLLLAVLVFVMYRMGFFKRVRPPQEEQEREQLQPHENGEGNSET
T2 sequence (P05106 27-788): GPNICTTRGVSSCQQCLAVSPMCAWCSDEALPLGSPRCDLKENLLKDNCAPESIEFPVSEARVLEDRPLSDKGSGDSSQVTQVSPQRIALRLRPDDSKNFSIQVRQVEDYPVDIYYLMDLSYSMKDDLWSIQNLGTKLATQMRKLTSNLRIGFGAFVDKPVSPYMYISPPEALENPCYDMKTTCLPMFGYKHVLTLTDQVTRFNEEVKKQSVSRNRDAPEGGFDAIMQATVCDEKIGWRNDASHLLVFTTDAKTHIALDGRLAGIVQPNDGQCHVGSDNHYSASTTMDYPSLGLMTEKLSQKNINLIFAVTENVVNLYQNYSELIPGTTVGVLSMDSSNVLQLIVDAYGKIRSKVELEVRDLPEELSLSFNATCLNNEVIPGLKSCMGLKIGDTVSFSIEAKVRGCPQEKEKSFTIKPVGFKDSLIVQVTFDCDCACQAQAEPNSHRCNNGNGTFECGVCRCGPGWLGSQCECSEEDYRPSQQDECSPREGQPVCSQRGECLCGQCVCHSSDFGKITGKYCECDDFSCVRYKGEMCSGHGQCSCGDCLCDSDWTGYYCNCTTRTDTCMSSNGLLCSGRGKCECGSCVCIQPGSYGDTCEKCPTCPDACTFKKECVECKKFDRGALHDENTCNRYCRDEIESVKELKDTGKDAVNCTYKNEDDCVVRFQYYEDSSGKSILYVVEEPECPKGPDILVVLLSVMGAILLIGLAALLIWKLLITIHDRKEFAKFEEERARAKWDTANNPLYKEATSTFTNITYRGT
Method: as §2

Mac-1 = Mac-1 (Homo sapiens, UniProt P05107+P11215); conditions: ELISA in vitro (Camenisch et al., 2002); cited from earlier work
Sequence of Mac-1 (P05107 23-769, other chains not shown): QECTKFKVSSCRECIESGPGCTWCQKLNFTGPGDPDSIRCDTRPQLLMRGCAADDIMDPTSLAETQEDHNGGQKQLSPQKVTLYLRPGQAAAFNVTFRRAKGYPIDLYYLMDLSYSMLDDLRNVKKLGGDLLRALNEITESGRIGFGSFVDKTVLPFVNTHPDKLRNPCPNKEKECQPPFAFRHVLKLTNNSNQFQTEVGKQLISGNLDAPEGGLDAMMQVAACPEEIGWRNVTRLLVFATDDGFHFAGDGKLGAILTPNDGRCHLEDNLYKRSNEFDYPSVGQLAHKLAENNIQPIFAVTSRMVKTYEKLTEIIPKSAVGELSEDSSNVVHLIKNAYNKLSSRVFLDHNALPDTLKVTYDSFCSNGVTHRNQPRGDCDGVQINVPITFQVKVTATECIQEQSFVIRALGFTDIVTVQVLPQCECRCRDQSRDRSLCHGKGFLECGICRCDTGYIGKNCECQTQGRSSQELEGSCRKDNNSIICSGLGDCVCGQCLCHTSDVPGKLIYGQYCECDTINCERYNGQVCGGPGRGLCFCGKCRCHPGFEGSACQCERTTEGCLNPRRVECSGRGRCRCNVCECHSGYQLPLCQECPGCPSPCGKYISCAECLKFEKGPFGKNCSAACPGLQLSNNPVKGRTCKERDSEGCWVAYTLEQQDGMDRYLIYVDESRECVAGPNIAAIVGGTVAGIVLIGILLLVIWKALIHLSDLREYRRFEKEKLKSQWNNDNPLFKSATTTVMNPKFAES

[2] = tested on: freshly isolated murine hepatocytes; test: cell adhesion on protein-coated plates, hepatocytes; assay type: cell-based, mouse; conditions: dishes coated with recombinant mAngptl3 (FIG. 13 legend), 200 nM PMA
Method: 96-well flat-bottomed plates (MaxiSorp, Nunc, Denmark) were coated overnight at 4° C. with the indicated concentrations of proteins and blocked with 3% BSA in PBS for 1 hour at 37° C. Primary human dermal endothelial cells (HMVECs) and freshly isolated murine hepatocytes that were prepared from the livers of adult C57/B16 mice using the method described in LeCouter et al (LeCouter et al., 2001) were harvested and diluted to 10^5 cells/ml in serum-free CS-C medium containing 1% BSA, 1 mM CaCl2 and 1 mM MgCl2 in the presence of 200 nM PMA. […] Cell suspensions (10^4 cells/well) were added to the coated wells and the plates were incubated at 37° C. for selected times. Non-adherent cells were removed by PBS washes and cell attachment was measured using the PNAG method of Landegren (Landegren, 1984). Results were expressed at mean OD405 values of triplicate wells.

Tie1 receptor = target: T3, Tie1 receptor (Homo sapiens, UniProt P35590); test: co-immunoprecipitation in cotransfected 293 cells; assay type: binding; conditions: immunoprecipitation with anti-Tie1, anti-gD blot
T3 construct: in conjunction with full length receptor constructs for Tie1 and Tie2, respectively; expressed in transfected cells; host or cells: 293 cells (transient transfection)
T3 sequence (P35590 22-1138): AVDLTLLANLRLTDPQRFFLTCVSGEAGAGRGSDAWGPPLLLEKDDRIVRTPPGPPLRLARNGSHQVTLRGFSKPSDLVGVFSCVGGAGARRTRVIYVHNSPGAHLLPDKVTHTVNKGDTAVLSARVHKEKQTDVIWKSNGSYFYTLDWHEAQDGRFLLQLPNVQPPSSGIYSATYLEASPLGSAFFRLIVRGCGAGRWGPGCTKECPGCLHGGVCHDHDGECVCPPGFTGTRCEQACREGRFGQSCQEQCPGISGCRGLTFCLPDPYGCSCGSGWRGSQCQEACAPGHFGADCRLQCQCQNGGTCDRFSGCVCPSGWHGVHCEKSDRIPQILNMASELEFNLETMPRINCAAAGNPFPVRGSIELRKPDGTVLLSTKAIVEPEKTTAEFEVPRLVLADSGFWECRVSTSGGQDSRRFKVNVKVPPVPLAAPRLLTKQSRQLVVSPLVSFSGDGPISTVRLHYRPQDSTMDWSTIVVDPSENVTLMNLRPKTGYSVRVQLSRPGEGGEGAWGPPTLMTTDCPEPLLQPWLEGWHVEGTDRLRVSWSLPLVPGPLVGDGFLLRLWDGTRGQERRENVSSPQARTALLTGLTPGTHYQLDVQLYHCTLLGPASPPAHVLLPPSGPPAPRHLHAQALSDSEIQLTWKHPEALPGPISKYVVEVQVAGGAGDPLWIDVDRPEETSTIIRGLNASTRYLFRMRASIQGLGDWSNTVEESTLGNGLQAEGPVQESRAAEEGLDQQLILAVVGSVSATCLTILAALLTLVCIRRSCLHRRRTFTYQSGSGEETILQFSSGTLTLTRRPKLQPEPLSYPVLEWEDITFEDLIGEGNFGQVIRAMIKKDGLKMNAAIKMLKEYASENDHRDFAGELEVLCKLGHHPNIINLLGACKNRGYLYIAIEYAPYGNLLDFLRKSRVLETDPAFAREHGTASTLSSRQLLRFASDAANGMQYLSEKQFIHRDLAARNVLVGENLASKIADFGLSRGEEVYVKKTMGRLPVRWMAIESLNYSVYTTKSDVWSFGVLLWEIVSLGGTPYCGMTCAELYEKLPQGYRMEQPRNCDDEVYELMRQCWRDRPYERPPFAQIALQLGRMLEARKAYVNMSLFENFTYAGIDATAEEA
Method: as §1

Q: For “Ang2: epitope (gD)-tagged Tie2 ligand angiopoietin 2 [reference compound]”, which “binding to HMVEC” value [1] is on record?
A: strongly bound

Q: And the “binding to Tie2” value (Tie2 receptor)?
A: Tie2 binding

Q: With `O=C(O)CN(CCN(CC(=O)O)CC(=O)O)CC(=O)O` [EDTA, reference compound] as the molecule, how does the “effect of EDTA on endothelial cell adhesion to Angptl3” value (HMVEC; EDTA 10 mM) read?
A: completely abolished

B1: Ang1: epitope (gD)-tagged Tie2 ligand angiopoietin 1 (protein, listed as Homo sapiens)
chain: RDCADVYQAGFNKSGIYTIYINNMPEPKKVFCNMDVNGGGWTVIQHREDGSLDFQRGWKEYKMGFGNPSGEYWLGNEFIFAITSQRQYMLRIELMDWEGNRAYSQYDRFHIGNEKQNYRLYLKGHTGTAGKQSSLILHGADFSTKDADNDNCMCKCALMLTGGWWFDACGPSNLNGMFYTAGQNHGKLNGIKWHYFKGPSYSLRSTTMMIRPLDF
modifications: gD epitope tag
Q: For B1, which “binding to Tie2” value (Tie2 receptor) is on record?
A: Tie2 binding

B2: murine Angptl3: recombinant mouse Angptl3 overexpressed in CHO cells (protein, UniProt Q9R182 17-455, looked up)
Angiopoietin-related protein 3: SRVDPDLSSFDSAPSEPKSRFAMLDDVKILANGLLQLGHGLKDFVHKTKGQINDIFQKLNIFDQSFYDLSLRTNEIKEEEKELRRTTSTLQVKNEEVKNMSVELNSKLESLLEEKTALQHKVRALEEQLTNLILSPAGAQEHPEVTSLKSFVEQQDNSIRELLQSVEEQYKQLSQQHMQIKEIEKQLRKTGIQEPSENSLSSKSRAPRTTPPLQLNETENTEQDDLPADCSAVYNRGEHTSGVYTIKPRNSQGFNVYCDTQSGSPWTLIQHRKDGSQDFNETWENYEKGFGRLDGEFWLGLEKIYAIVQQSNYILRLELQDWKDSKHYVEYSFHLGSHETNYTLHVAEIAGNIPGALPEHTDLMFSTWNHRAKGQLYCPESYSGGWWWNDICGENNLNGKYNKPRTKSRPERRRGIYWRPQSRKLYAIKSSKMMLQPTT
Q: With B2 as the molecule, how does the “potency in inducing angiogenesis compared to the recombinant human protein” value (rat cornea; 500 ng each) read?
A: slightly more potent

Q: What about the “angiogenic response compared to levels obtained for VEGF” value (rat cornea) of the same molecule?
A: comparable

B3: ARP1: angiopoietin related protein 1, unable to bind Tie2, negative control (protein, UniProt O95841 24-491, looked up)
Angiopoietin-related protein 1: GQFKIKKINQRRYPRATDGKEEAKKCAYTFLVPEQRITGPICVNTKGQDASTIKDMITRMDLENLKDVLSRQKREIDVLQLVVDVDGNIVNEVKLLRKESRNMNSRVTQLYMQLLHEIIRKRDNSLELSQLENKILNVTTEMLKMATRYRELEVKYASLTDLVNNQSVMITLLEEQCLRIFSRQDTHVSPPLVQVVPQHIPNSQQYTPGLLGGNEIQRDPGYPRDLMPPPDLATSPTKSPFKIPPVTFINEGPFKDCQQAKEAGHSVSGIYMIKPENSNGPMQLWCENSLDPGGWTVIQKRTDGSVNFFRNWENYKKGFGNIDGEYWLGLENIYMLSNQDNYKLLIELEDWSDKKVYAEYSSFRLEPESEFYRLRLGTYQGNAGDSMMWHNGKQFTTLDRDKDMYAGNCAHFHKGGWWYNACAHSNLNGVWYRGGHYRSKHQDGIFWAEYRGGSYSLRAVQMMIKPID
Q: With B3 as the molecule, how does the “binding to HMVEC” value [1] read?
A: no binding was observed

B4: Angptl3: angiopoietin-like protein 3, native human sequence SEQ ID NO: 2; recombinant gD-tagged secreted glycoprotein (protein, listed as Homo sapiens)
chain: MFTIKLLLFIVPLVISSRIDQDNSSFDSLSPEPKSRFAMLDDVKILANGLLQLGHGLKDFVHKTKGQINDIFQKLNIFDQSFYDLSLQTSEIKEEEKELRRTTYKLQVKNEEVKNMSLELNSKLESLLEEKILLQQKVKYLEEQLTNLIQNQPETPEHPEVTSLKTFVEKQDNSIKDLLQTVEDQYKQLNQQHSQIKEIENQLRRTSIQEPTEISLSSKPRAPRTTPFLQLNEIRNVKHDGIPAECTTIYNRGEHTSGMYAIRPSNSQVFHVYCDVISGSPWTLIQHRIDGSQNFNETWENYKYGFGRLDGEFWLGLEKIYSIVKQSNYVLRIELEDWKDNKHYIEYSFYLGNHETNYTLHLVAITGNVPNAIPENKDLVFSTWDHKAKGHFNCPEGYSGGWWWHDECGENNLNGKYNKPRAKSKPERRRGLSWKSQNGRLYSIKSTKMLIHPTDSESFE
modifications: gD tag
notes: recombinant gD-tagged secreted glycoprotein
Q: With B4 as the molecule, how does the “binding to HMVEC after exposure of cells to hypoxia or VEGF” value ([1]; cells exposed to hypoxia or VEGF, data not shown) read?
A: significantly increased

Q: And the “binding to HMVEC” value [1]?
A: strongly bound

Q: And the “binding to LFA1” value (LFA1)?
A: did not bind

Q: And the “induction of endothelial cell adhesion” value (HMVEC; increasing coating amounts of hAngptl3, within 4 hours)?
A: robust, dose-dependent adhesion

Q: What about the “in vivo angiogenic response in rat cornea” value (rat cornea; 500 ng in hydron pellet, alone, 5 days after pellet implantation) of the same molecule?
A: strong angiogenic response

Q: And the “angiogenic response compared to levels obtained for VEGF” value (rat cornea)?
A: comparable

Q: And the “adherence of 293 cells expressing αvβ3 to Angptl3” value (αvβ3 integrin)?
A: marked increased

Q: What about the “binding to Mac-1” value (Mac-1) of the same molecule?
A: did not bind

Q: What about the hepatocyte adhesion [2] of the same molecule?
A: Coating-concentration dependent

Q: What about the “binding to Tie2” value (Tie2 receptor) of the same molecule?
A: did not bind

Q: And the “binding to Tie1” value (Tie1 receptor)?
A: did not bind
